These results are taken from publication PMC4736712, “Direct α-synuclein promoter transactivation by the tumor suppressor p53”.

Data set [1] deals with T1, p53 (wild-type recombinant, p53r) (UniProt P04637 1-393). Description: EMSA; 200 ng p53, 20 fmol probe; shift blocked by anti-p53 pab421 or DO1; 1X binding buffer (Promega), 100 ng poly(dI-dC), 10 mM DTT, 1 mg/ml BSA, 4 °C, 30 min; 5% native PAGE at 4 °C; salt and pH not stated. The following applies: protein: commercial; chain copies: 4; label: 5' biotin; blunt.
T1 sequence (P04637 whole entry): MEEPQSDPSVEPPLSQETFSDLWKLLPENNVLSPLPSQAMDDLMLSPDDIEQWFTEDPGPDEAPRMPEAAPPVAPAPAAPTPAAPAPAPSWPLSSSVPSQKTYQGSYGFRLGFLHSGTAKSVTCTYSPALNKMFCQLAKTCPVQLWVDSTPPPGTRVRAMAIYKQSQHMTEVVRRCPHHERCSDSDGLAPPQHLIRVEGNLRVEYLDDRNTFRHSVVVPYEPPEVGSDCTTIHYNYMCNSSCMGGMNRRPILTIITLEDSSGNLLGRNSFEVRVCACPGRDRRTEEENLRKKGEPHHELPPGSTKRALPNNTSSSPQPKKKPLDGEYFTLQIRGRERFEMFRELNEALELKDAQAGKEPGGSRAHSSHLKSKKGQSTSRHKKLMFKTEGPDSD
Data set [2] concerns the target T1, p53 (wild-type recombinant, p53r). Description: competition EMSA; 4 pmol cold competitor (200-fold excess) blocks shift of N1; 1X binding buffer (Promega), 100 ng poly(dI-dC), 10 mM DTT, 1 mg/ml BSA, 4 °C, 30 min; 5% native PAGE at 4 °C; salt and pH not stated. The following applies: protein: commercial; chain copies: 4; blunt.

B1: alpha-syn promoter probe (p53 half-site) (dsDNA)
DNA 1: CCTTTCGCTGGAGACATGCCCTTCCATCCTGTCAAAGCCC
DNA 2: GGGCTTTGACAGGATGGAAGGGCATGTCTCCAGCGAAAGG
Regarding B1, the binding result in data set [1] was “binds”.

B2: unlabeled specific competitor (comp-sp) (dsDNA)
DNA 1: B1 DNA 1
DNA 2: B1 DNA 2
For the molecule B2, in data set [2], the binding result is on record as “binds”.
